Source: patent US20090232804A1 (GLENMARK PHARMACEUTICALS S A, published 2009)
Changes are numbered by the printed parent chain. Names and notes keep the numbering of the source. Values belong to the molecule of their own block, whether it stands above or below them.

How the values were obtained:
[1] = molecular target: His tagged A1 domain of human von Willebrand factor (residues 499-729), expressed in E. coli (human) (UniProt P04275); assay: DELFIA competitive binding format (time-resolved fluorescence): Eu-NMC-4 chimera at 100 pM on wells coated with His-hA1, unlabelled AJW200 varied; EC50 of the enhancement of Eu-NMC-4 binding
[2] = molecular target: purified human von Willebrand factor (vWF) (human) (UniProt P04275); assay: cell-based or functional assay
[3] = molecular target: His tagged A1 domain of human von Willebrand factor (residues 499-729), expressed in E. coli (human) (UniProt P04275); assay: ratio of the kinetic constants (row printed as 'kon/koff'), DELFIA, 37 °C
[4] = molecular target: His tagged A1 domain of human von Willebrand factor (residues 499-729), expressed in E. coli (human) (UniProt P04275); assay: DELFIA competitive binding (time-resolved fluorescence): Eu-NMC-4 chimera at 100 pM on wells coated with His-hA1, unlabelled competitor antibody varied (homologous competition)
[5] = molecular target: His tagged A1 domain of human von Willebrand factor (residues 499-729), expressed in E. coli (human) (UniProt P04275); assay: homologous competition with 100 pM Eu-NMC-4 chimera on plate-coated human His-A1, DELFIA, Cheng-Prusoff
[6] = molecular target: His tagged A1 domain of human von Willebrand factor (residues 499-729), expressed in E. coli (human) (UniProt P04275); assay: calculated from koff, DELFIA kinetics on plate-coated His-A1, 37 °C
[7] = molecular target: His tagged A1 domain of human von Willebrand factor (residues 499-729), expressed in E. coli (human) (UniProt P04275); assay: equilibrium binding (Scatchard), Eu-labelled antibody on direct-coated His-A1, DELFIA, 37 °C, n = 10
[8] = molecular target: His tagged A1 domain of human von Willebrand factor (residues 499-729), expressed in E. coli (human) (UniProt P04275); assay: homologous competition with Eu-NMC-4 chimera on plate-coated His-A1, DELFIA, Cheng-Prusoff, n = 4
[9] = molecular target: His tagged A1 domain of human von Willebrand factor (residues 499-729), expressed in E. coli (human) (UniProt P04275); assay: competition with 100 pM Eu-NMC-4 chimera on plate-coated human His-A1, DELFIA, Cheng-Prusoff
[10] = molecular target: T1, purified human von Willebrand factor (vWF) (human, UniProt P04275 764-2813); assay: cell-based or functional assay
[11] = molecular target: T1, purified human von Willebrand factor …; assay: cell-based or functional assay; remark: listed apart in the source
[12] = molecular target: T1, purified human von Willebrand factor …; assay: cell-based or functional assay; remark: listed apart in the source
[13] = molecular target: T2, His tagged A1 domain of rat von Willebrand factor, expressed in E. coli (rat, UniProt Q62935 13-256); assay: DELFIA association kinetics, Eu-labelled antibody on plate-coated His-A1, 37 °C
T2 construct: domain: A1 domain; also called His-A1 (rat); His-rA1; not shown: His tag from the pETDuet-1 vector

[14] = molecular target: T2, His tagged A1 domain of rat von …; assay: calculated from koff, DELFIA kinetics on plate-coated His-A1, 37 °C
[15] = molecular target: T2, His tagged A1 domain of rat von …; assay: homologous competition with Eu-NMC-4 chimera on plate-coated rat His-A1, DELFIA, Cheng-Prusoff, n = 3
Procedure: Wells of Immulon-4 plates are coated with His-A1 domain of vWF from human (e.g., 25 ng in 100 μl/well in 30 mM Tris, pH 7.4 and 300 mM NaCl or divalent cation-free PBS) or rat (e.g., 50 ng/well) by incubating overnight at 4° C. The plates are washed three times with Wash Buffer (e.g., 50 mM HEPES, pH 7.4, 150 mM NaCl, 0.5% Tween-20), blocked with 300 μl/well Blocking Buffer (e.g., Wash Buffer containing 3.0 mg/ml IgG-free BSA and 0.1% sodium azide) for 1 hour at room temperature and washed 5 times with Wash Buffer before use.
Competitive binding studies may be performed to determine Ki values (e.g., a measure of relative affinity for antigen). […] The final concentration of europium-labeled antibody is 100 pM.

[16] = molecular target: T2, His tagged A1 domain of rat von …; assay: ratio of the kinetic constants (row printed as 'kon/koff'), DELFIA, 37 °C
[17] = molecular target: T2, His tagged A1 domain of rat von …; assay: equilibrium binding (Scatchard), Eu-labelled antibody on direct-coated His-A1, DELFIA, 37 °C, n = 5
Procedure: Equilibrium binding assays are performed as follows. Eu-antibody is pre-diluted into Binding Buffer (e.g., Wash buffer containing 100 μg/ml IgG-free BSA and 0.1% sodium azide) and applied to wells (e.g., 10 μl/well) of a 96-well plate and the plates sealed with SEALPLATE film. The plates are shaken (e.g., Titer Plate Shaker speed setting of 4 for ≧15 sec or 60 sec at RT), placed into nalgene boxes containing wet paper towels, and incubated in the closed boxes for 2 hours at 37° C. For the measurement of free label, supernatant samples (4.0 μl) are transferred from the wells containing binding mixtures into a parallel set of wells containing DELFIA Enhancement Solution (100 μl/well). To assess bound antibody, the A1-coated wells with the remaining binding mixtures are washed five times with Wash Buffer, tapped dry onto paper towels and DELFIA Enhancement Solution (100 μl/well) added to the empty wells for the measurement of bound label. For assay calibration, DELFIA Enhancement Solution (100 μl/well) is added to unused wells and Europium Standard (1.0 μl/well) is added. The plates are shaken (e.g., Titer Plate Shaker speed setting of 5 for 10 minutes at room temperature), and time-resolved fluorescent (TRF) intensities are read using a Victor2 multi-label plate reader (Perkin-Elmer Wallac, Boston, Mass.). […]

B1: humanized NMC-4 variant H14, L11 (IgG1) (antibody, V domains shown)
VH: QVQLQESGPGLVKPSETLSLTCTVSGGSISDYGWDWIRQPPGKGLEWIGMIWGDGSTDYNPSLKSRVTISVDTSKNQFSLKLSSVTAADTAVYYCARDPADYGNYDYALDYWGQGTLVTVSS
VL: DIQMTQSPSSLSASVGDRVTITCQASQDISNYLNWYQQKPGKAPKLLIYDASNLETGVPSRFSGSGSGTDFTLTFSSLQPEDFATYYCQQYEKLPWTFGQGTKVEIK
EC50 (nM), platelet agglutination assay [10]: 1.63 nM
fold lower activity compared to chimera, platelet agglutination assay [11]: 10 fold

B2: humanized NMC-4 variant H8, L5 (IgG1) (antibody, V domains shown)
VH: QVQLQESGPGLVKPSETLSLTCTVSGFSLTDYGVDWIRQPPGKGLEWIGMIWGDGSTDYNSALKSRLTISKDNSKNQFSLKLSSVTAADTAVYYCVRDPADYGNYDYALDYWGQGTSLTVSS
VL: DIQMTQSPSSLSASVGDRVTITCSASQDINKYLNWYQQKPGKAVKLLIFYTSSLHSGVPSRFSGSGSGTDYTLTISSLQPEDIATYYCQQYEKLPWTFGQGTKVEIK
EC50 [12]: 0.28 nM
fold change of EC50 against the other variants [11]: 1.5 fold

B4: NMC-4 monoclonal antibody (murine anti-vWF antibody, IgG1κ) (antibody, V domains shown)
VH: QVQLKESGPGLVAPSQSLSITCTVSGFSLTDYGVDWVRQPPGKGLEWLGMIWGDGSTDYNSALKSRLSITKDNSKSQVFLKMNSLQTDDTARYYCVRDPADYGNYDYALDYWGQGTSVTVSS
VL: DIQMTQSPSSLSASLGDRVTISCSASQDINKYLNWYQQKPDGAVKLLIFYTSSLHSGVPSRFSGSGSGTDYSLTISNLEPEDIATYYCQQYEKLPWTFGGGTKLEVKR
EC50, ristocetin-induced platelet agglutination assay [11]: 0.17 nM

Continued, values first:

EC50 (read off the curve) [1]: 0.2 nM
EC50, ristocetin-induced platelet agglutination assay [2]: 0.27 nM
Molecule: AJW200 reference antibody (anti-vWF A1 domain, cloned with human IgG1(dm) constant region)

Kd [3]: 0.39 nM
IC50 (read off the curve) [4]: 0.6 nM
Ki [5]: 0.28 nM
Dissociation half-life [6]: 44 min
Kd [7]: 0.316 nM
Ki [8]: 0.275 nM
Molecule: NMC-4-human Fc chimera (NMC-4 variable regions on human IgG1(dm) and human kappa constant regions) (antibody)

Ki [9]: 0.6 nM
Molecule: NMC-4 monoclonal antibody (murine anti-vWF antibody, IgG1κ)

kon [13]: 233000 M⁻¹ s⁻¹
Dissociation half-life [14]: 69 min
Ki [15]: 0.297 nM
Kd [16]: 0.7 nM
Kd [17]: 0.276 nM
B3: NMC-4-human Fc chimera (NMC-4 variable regions on human IgG1(dm) and human kappa constant regions) (antibody, V domains shown)
VH: B4 VH
VL: B2 VL with V15L, T22S, G41D, K42G, T72S, S77N, Q79E, Q100G, V104L, I106V
notes: Heavy constant region is human IgG1 with L235E, E318A, K320A, K332A (IgG1(dm)); also called NMC-4 chimera; NMC4 chimera
